According to patent publication US20230257470A1 (published 2023):
Residue numbers refer to the chain shown, from its start. In names and notes the source's numbering stands.

T1: human FcγRIIa type H (human, UniProt P12318 36-217)
T1 construct: also called FcyRIIaH; FcγRIIa(H)
T1 sequence: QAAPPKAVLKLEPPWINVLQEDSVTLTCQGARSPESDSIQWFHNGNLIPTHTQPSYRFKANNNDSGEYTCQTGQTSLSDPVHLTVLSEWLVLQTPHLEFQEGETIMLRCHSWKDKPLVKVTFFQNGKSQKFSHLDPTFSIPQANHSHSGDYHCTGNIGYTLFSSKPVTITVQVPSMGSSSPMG

T2: human FcγRIIb (human, UniProt P31994 43-217, limits assumed)
T2 construct: also called FcyRIfb; FcγIIB
T2 sequence: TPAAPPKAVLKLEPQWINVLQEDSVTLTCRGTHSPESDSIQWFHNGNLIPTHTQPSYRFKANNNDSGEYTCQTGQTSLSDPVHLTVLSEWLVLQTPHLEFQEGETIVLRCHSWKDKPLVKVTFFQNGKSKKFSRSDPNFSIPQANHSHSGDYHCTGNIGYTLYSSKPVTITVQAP

T3: human FcγRIIa(R) (allotype R131) (human, UniProt P12318 36-217)
T3 construct: Soluble analyte in SPR; also called hFcgRIIa(R); FcgRIIaR
T3 chain: T1 sequence with H133R

T4: human FcγRIIa(H) (allotype H131) (human, UniProt P12318 36-217)
T4 construct: Soluble analyte in SPR; also called hFcgRIIa(H); FcgRIIaH
T4 sequence: T1 sequence

T5: human FcγRIIb (human, UniProt P31994 43-217, limits assumed)
T5 construct: Soluble analyte in SPR; also called hFcgRIIb; FcgRIIb
T5 sequence: T2 sequence

B1: IL6R-BP142/IL6R-L (antibody, human IgG1, name in EU numbering)
heavy: QVQLQESGPGLVKPSETLSLTCAVSGHSISHDHAWSWVRQPPGEGLEWIGFISYSGITNYNPSLQGRVTISRDNSKNTLYLQMNSLRAEDTAVYYCARSLARTTAMDYWGEGTLVTVSSASTKGPSVFPLAPSSKSTSGGTAALGCLVKDYFPEPVTVSWNSGALTSGVHTFPAVLQSSGLYSLSSVVTVPSSSLGTQTYICNVNHKPSNTKVDKKVEPKSCDKTHTCPPCPAPELLGGDSVFLFPPKPKDTLMISRTPEVTCVVVDVSHEDPEVKFNWYVDGVEVHNAKTKPREEQYNSTYRVVSVLTVLHQDWLNGKEYKCKVSNNALPAPIEKTISKAKGQPREPQVYTLPPSRDELTKNQVSLTCLVKGFYPSDIAVEWESNGQPENNYKTTPPVLDSDGSFFLYSKLTVDKSRWQQGNVFSCSVMHEALHNHYTQESLSLSP
light: DIQMTQSPSSLSASVGDRVTITCRASQDISSYLNWYQQKPGKAPKLLIYYTSRLHSGVPSRFSGSGSGTDFTFTISSLQPEDIATYYCQQGNTLPYTFGQGTKVEIK
B2: IL6R-G1d/IL6R-L (antibody, human IgG1)
heavy: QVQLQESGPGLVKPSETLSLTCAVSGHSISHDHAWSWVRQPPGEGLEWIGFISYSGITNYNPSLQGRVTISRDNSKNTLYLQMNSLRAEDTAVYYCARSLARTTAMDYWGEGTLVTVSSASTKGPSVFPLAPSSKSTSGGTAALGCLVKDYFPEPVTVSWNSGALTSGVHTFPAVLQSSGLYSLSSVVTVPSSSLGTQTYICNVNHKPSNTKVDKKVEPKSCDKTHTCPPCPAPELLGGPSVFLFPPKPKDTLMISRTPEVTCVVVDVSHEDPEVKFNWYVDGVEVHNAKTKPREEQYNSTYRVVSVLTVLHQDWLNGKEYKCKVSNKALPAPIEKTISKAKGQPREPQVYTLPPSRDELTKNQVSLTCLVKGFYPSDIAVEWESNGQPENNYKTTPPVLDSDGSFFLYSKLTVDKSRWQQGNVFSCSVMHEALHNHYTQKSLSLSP
light: B1 light
notes: Anti-human IL-6 receptor IgG1 with the G1d constant region (C-terminal Gly and Lys removed); also called IgG1
B3: IL6R-BP911/IL6R-L (antibody, human IgG1, name in EU numbering)
heavy: B1 heavy with N328K, A332K
light: B1 light
B4: GpH7-B3 variant P329H / GpL16-k0 (antibody, human IgG1)
heavy: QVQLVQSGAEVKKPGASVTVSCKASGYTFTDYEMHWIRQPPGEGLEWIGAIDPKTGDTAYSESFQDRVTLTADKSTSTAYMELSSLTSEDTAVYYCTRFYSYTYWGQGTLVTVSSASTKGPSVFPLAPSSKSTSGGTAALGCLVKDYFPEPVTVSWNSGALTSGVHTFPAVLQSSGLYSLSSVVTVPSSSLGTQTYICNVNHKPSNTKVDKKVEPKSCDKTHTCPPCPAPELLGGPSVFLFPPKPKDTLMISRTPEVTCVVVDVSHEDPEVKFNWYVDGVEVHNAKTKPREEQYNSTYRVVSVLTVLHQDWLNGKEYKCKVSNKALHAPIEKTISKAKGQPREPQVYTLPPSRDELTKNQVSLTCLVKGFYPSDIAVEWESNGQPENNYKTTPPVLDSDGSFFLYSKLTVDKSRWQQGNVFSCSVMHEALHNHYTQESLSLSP
light: DIVMTQSPLSLPVTPGEPASISCQASESLVHSNRNTYLHWYLQKPGQSPQLLIYKVSNRFSGVPDRFSGSGSGTDFTLKISRVEAEDVGVYYCSQNTHVPPTFGQGTKVEIE
notes: Anti-glypican-3 human IgG1 with B3 constant region (G1d with K439E); position by EU numbering
B5: GpH7-B3 variant I332R / GpL16-k0 (antibody, human IgG1)
heavy: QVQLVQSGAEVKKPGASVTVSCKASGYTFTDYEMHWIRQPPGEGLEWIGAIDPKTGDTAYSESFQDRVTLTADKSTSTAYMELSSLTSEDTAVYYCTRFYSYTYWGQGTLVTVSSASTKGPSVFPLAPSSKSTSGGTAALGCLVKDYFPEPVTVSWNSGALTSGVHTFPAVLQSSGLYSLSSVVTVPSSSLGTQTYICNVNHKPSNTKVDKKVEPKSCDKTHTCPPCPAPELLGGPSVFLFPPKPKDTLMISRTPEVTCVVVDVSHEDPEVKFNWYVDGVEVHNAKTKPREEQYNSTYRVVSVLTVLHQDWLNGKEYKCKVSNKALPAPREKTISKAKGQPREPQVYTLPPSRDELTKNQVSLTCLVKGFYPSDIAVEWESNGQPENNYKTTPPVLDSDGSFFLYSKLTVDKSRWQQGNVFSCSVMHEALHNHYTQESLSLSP
light: B4 light
notes: Anti-glypican-3 human IgG1 with B3 constant region; position by EU numbering
B6: GpH7-B3 variant I332P / GpL16-k0 (antibody, human IgG1)
heavy: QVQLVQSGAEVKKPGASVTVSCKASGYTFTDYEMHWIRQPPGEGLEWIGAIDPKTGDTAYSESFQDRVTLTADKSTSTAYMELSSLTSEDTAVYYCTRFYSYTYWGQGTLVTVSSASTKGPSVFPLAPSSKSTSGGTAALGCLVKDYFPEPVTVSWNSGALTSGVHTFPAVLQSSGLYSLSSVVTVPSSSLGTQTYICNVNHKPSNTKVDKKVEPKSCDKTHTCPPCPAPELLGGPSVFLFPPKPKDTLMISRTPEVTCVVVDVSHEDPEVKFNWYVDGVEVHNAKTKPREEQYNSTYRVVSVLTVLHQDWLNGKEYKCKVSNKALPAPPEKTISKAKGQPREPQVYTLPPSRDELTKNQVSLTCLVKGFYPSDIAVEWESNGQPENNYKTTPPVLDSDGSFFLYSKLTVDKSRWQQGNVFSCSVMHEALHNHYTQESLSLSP
light: B4 light
notes: as for B5
B7: GpH7-B3 variant P329N / GpL16-k0 (antibody, human IgG1)
heavy: not shown
light: B4 light
notes: as for B5
B8: GpH7-B3 variant P329S / GpL16-k0 (antibody, human IgG1)
heavy: not shown
light: B4 light
notes: as for B5
B9: GpH7-B3 variant P329D / GpL16-k0 (antibody, human IgG1)
heavy: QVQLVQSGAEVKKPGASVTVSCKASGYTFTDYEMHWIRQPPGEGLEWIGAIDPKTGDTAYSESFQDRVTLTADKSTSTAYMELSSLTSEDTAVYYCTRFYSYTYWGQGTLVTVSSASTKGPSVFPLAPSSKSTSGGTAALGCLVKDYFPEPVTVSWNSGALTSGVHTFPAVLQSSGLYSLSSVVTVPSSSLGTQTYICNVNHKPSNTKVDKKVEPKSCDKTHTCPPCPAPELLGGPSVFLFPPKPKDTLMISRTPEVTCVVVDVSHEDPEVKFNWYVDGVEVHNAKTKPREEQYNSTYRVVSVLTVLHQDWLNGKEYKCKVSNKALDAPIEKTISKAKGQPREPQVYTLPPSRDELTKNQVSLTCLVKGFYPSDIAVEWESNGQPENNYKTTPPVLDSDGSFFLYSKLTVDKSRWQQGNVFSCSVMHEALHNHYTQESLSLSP
light: B4 light
notes: as for B5
B10: GpH7-B3 variant A330P / GpL16-k0 (antibody, human IgG1)
heavy: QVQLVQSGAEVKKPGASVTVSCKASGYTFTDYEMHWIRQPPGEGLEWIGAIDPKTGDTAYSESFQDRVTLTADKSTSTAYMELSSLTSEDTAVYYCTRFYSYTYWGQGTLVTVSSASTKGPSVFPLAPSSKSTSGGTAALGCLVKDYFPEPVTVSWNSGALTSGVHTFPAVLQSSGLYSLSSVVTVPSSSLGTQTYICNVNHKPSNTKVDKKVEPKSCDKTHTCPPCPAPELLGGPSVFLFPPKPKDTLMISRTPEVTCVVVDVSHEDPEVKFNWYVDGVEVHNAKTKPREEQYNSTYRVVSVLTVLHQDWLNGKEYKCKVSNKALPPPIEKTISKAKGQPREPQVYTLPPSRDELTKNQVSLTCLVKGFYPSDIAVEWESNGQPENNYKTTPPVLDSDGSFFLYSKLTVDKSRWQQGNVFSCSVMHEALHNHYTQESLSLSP
light: B4 light
notes: as for B5
B11: GpH7-B3 variant P329E / GpL16-k0 (antibody, human IgG1)
heavy: not shown
light: B4 light
notes: as for B5
B12: GpH7-B3 variant P331K / GpL16-k0 (antibody, human IgG1)
heavy: not shown
light: B4 light
notes: as for B5
B13: GpH7-B3 variant P331G / GpL16-k0 (antibody, human IgG1)
heavy: not shown
light: B4 light
notes: as for B5
B14: GpH7-B3 variant P331R / GpL16-k0 (antibody, human IgG1)
heavy: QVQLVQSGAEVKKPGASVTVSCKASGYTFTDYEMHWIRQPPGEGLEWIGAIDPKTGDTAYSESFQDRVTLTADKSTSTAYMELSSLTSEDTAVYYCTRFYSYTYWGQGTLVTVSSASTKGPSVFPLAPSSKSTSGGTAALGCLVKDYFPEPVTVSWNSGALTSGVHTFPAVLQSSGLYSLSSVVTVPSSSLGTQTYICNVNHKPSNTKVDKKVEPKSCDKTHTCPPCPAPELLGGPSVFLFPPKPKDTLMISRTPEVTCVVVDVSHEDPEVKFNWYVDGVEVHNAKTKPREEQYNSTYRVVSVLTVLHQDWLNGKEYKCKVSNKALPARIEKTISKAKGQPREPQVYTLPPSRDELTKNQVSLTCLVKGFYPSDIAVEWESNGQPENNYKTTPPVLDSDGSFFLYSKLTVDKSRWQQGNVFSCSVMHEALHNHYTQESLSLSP
light: B4 light
notes: as for B5
B15: GpH7-B3 variant P329W / GpL16-k0 (antibody, human IgG1)
heavy: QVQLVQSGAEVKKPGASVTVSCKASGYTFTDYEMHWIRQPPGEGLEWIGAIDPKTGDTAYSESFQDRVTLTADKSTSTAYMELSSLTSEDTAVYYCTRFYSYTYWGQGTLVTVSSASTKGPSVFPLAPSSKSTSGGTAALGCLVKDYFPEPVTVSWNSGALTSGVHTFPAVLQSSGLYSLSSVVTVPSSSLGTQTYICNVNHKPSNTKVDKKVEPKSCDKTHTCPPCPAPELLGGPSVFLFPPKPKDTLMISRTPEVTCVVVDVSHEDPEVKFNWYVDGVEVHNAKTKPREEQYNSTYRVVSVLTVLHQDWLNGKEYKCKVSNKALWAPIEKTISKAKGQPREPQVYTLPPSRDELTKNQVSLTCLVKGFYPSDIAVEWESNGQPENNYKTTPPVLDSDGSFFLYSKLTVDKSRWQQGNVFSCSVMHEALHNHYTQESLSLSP
light: B4 light
notes: as for B5
B16: GpH7-B3 variant P329Y / GpL16-k0 (antibody, human IgG1)
heavy: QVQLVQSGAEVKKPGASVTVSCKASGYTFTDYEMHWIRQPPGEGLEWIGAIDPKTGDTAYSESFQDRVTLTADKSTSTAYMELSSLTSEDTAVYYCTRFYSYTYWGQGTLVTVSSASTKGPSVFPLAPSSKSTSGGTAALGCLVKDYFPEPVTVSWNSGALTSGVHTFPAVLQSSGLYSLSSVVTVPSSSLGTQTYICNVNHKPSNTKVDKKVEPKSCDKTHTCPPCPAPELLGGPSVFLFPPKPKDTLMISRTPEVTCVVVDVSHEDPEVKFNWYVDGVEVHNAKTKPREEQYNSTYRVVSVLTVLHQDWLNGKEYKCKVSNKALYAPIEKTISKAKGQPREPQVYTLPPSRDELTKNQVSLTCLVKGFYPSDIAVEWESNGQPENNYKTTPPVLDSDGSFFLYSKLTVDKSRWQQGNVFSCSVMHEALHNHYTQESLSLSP
light: B4 light
notes: as for B5
B17: GpH7-B3 variant I332K / GpL16-k0 (antibody, human IgG1)
heavy: not shown
light: B4 light
notes: as for B5
B18: GpH7-B3 variant A330S / GpL16-k0 (antibody, human IgG1)
heavy: not shown
light: B4 light
notes: as for B5
B19: GpH7-B3 variant P329G / GpL16-k0 (antibody, human IgG1)
heavy: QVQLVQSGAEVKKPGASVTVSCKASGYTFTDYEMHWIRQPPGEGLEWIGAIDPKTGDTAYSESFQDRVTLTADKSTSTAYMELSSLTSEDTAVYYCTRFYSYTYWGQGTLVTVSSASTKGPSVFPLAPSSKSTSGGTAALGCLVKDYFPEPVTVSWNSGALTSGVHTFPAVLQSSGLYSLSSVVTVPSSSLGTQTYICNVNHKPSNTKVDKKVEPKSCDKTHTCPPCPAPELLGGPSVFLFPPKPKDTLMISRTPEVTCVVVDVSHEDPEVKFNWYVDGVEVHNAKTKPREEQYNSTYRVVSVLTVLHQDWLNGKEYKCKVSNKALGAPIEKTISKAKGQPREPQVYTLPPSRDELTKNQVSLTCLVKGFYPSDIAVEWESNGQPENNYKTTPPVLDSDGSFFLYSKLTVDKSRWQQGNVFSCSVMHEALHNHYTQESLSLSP
light: B4 light
notes: as for B5

biological target: T6, human FcγRIa (human, UniProt P12314 16-292, limits assumed); test: SPR (Biacore), FcγR over captured antibody; binding amount relative to IL6R-BF648/IL6R-L x100
T6 construct: also called FcyRIa; CD64
T6 sequence (P12314 16-292 limits assumed): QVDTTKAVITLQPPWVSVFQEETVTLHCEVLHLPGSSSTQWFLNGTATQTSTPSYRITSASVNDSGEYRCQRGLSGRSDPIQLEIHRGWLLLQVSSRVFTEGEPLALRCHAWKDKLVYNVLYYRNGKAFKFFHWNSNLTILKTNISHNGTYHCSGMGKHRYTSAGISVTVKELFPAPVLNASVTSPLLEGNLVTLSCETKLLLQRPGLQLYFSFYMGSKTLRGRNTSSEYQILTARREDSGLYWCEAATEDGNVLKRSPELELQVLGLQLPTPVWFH

relative binding | Binder
98 % of IL6R-BF648/IL6R-L | B1
140 % of IL6R-BF648/IL6R-L | B2
52 % of IL6R-BF648/IL6R-L | B3

biological target: T1, human FcγRIIa type H; test: as above

relative binding | Binder
97 % of IL6R-BF648/IL6R-L | B1
1670 % of IL6R-BF648/IL6R-L | B2
108 % of IL6R-BF648/IL6R-L | B3

biological target: T2, human FcγRIIb; test: as above

relative binding | Binder
106 % of IL6R-BF648/IL6R-L | B1
62 % of IL6R-BF648/IL6R-L | B2
119 % of IL6R-BF648/IL6R-L | B3

biological target: T7, human FcγRIIIa type V (human, UniProt P08637 17-208, limits assumed); test: as above
T7 construct: also called FcyRIIIa; FcγRIIIaV
T7 sequence (P08637 other isoform, or with tags, fused parts or gaps limits assumed): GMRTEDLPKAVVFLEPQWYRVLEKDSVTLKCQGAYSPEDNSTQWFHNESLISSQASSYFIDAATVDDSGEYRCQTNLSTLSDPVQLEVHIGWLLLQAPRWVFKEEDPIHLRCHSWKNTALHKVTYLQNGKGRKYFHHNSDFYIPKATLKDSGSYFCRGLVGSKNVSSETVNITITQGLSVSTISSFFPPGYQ

relative binding | Binder
102 % of IL6R-BF648/IL6R-L | B1
3350 % of IL6R-BF648/IL6R-L | B2
120 % of IL6R-BF648/IL6R-L | B3

biological target: T8, human FcγRIa (human, UniProt P12314 16-292, limits assumed); test: SPR (Biacore), antibody captured, FcγR analyte, 25 C; normalised to captured antibody, GpH7-B3/GpL16-k0 = 100;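 also: antibodies held on sensor chips through immobilized antigen peptide, Protein A, Protein A/G or Protein L, with HBS-EP+ running buffer and FcγR in solution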
T8 construct: Soluble analyte in SPR; also called hFcgRIa; FcgRIa
T8 sequence (P12314 16-292 limits assumed): as the sequence (P12314 16-292 limits assumed) above
Description: (§1) Interaction between each modified antibody and Fcγ receptor prepared in the manner described above was analyzed using the BIACORE™ T100 surface plasmon resonance system (GE Healthcare), BIACORE™ T200 surface plasmon resonance system (GE Healthcare), BIACORE™ A100 surface plasmon resonance system or BIACORE™ 4000 surface plasmon resonance system. HBS-EP+(GE Healthcare) was used for the running buffer, and measurements were carried out at 25° C. The chips used were chips in which antigen peptides, Protein A (Thermo Scientific), Protein A/G (Thermo Scientific) or Protein L (ACTIGEN® protein (Alltech or BioVision) were immobilized on the Series S Sensor Chip CM5 (GE Healthcare) or Series S Sensor Chip CM4 (GE Healthcare) by amine coupling, or chips in which preliminarily biotinylated antigen peptides were allowed to interact and then immobilized on the Series S Sensor Chip SA (certified) (GE Healthcare). The target antibodies were captured on these sensor chips, Fcγ receptor diluted with the running buffer was allowed to interact, followed by measurement of the amount of bound antibody. The amounts bound were compared between antibodies. However, since the amount of Fcγ receptor bound depends on the amount of captured antibody, the values used for comparison were first corrected by dividing the amount of Fcγ receptor bound by the captured amount of each antibody. Through reaction with 10 mM glycine-HCl at pH 1.5, the sensor chips were regenerated by washing off antibody captured on the sensor chips and used repeatedly.
(§2) Binding strength was evaluated according to the following method based on the results of analyzing the interaction with each FcγR. […] That value was then further multiplied by 100, and the resulting value was used as an indicator of relative binding activity to each FcγR.

relative binding activity (parent antibody = 100) | Binder
50 % of control | B4
95 % of control | B5
100 % of control | B6
45 % of control | B7
60 % of control | B8
23 % of control | B9
87 % of control | B10
33 % of control | B11
98 % of control | B12
88 % of control | B13
95 % of control | B14
94 % of control | B15
76 % of control | B16
77 % of control | B17
58 % of control | B18
92 % of control | B19

Biological target: T3, human FcγRIIa(R) (allotype R131)
Test: as above
Description: as §1, §2

relative binding activity (parent antibody = 100) | Binder
-1 % of control | B4
28 % of control | B5
34 % of control | B6
4 % of control | B7
0 % of control | B8
1 % of control | B9
42 % of control | B10
-1 % of control | B11
72 % of control | B12
13 % of control | B13
64 % of control | B14
1 % of control | B15
-1 % of control | B16
12 % of control | B17
0 % of control | B18

biological target: T4, human FcγRIIa(H) (allotype H131); test: as above
Description: as §1, §2

relative binding activity (parent antibody = 100) | Binder
0 % of control | B4
70 % of control | B5
26 % of control | B6
5 % of control | B7
1 % of control | B8
-1 % of control | B9
25 % of control | B10
0 % of control | B11
58 % of control | B12
59 % of control | B14
0 % of control | B15
0 % of control | B16
59 % of control | B17
0 % of control | B18
1 % of control | B19

biological target: T5, human FcγRIIb; test: as above
Description: as §1, §2

relative binding activity (parent antibody = 100) | Binder
-3 % of control | B4
23 % of control | B5
41 % of control | B6
0 % of control | B7
1 % of control | B8
-2 % of control | B9
39 % of control | B10
-2 % of control | B11
63 % of control | B12
55 % of control | B14
0 % of control | B15
-3 % of control | B16
27 % of control | B17
-3 % of control | B18
0 % of control | B19

biological target: T9, human FcγRIIIa(F) (allotype F158) (human, UniProt P08637 17-208, limits assumed); test: as above
T9 construct: also called hFcgRIIIa(F); FcgRIIIaF
Description: as §1, §2

relative binding activity (parent antibody = 100) | Binder
-1 % of control | B4
61 % of control | B5
14 % of control | B6
3 % of control | B7
1 % of control | B8
-1 % of control | B9
56 % of control | B10
-1 % of control | B11
34 % of control | B12
38 % of control | B14
0 % of control | B15
0 % of control | B16
0 % of control | B18
4 % of control | B19
